Consider one molecule from paper PMC9935901 (2023).

For test [1], the target named is Cell-penetrating FaP2 (CP-FaP2). As to the kind of experiment: SPR. (SPR reads the build-up and loss of mass on a sensor chip optically.)
For test [2], the target named is Cell-penetrating FaP3 (CP-FaP3). Nature of the test: SPR.

B1: β-catenin (surface plasmon resonance) (natural protein)
chain: MATQADLMELDMAMEPDRKAAVSHWQQQSYLDSGIHSGATTTAPSLSGKGNPEEEDVDTSQVLYEWEQGFSQSFTQEQVADIDGQYAMTRAQRVRAAMFPETLDEGMQIPSTQFDAAHPTNVQRLAEPSQMLKHAVVNLINYQDDAELATRAIPELTKLLNDEDQVVVNKAAVMVHQLSKKEASRHAIMRSPQMVSAIVRTMQNTNDVETARCTAGTLHNLSHHREGLLAIFKSGGIPALVKMLGSPVDSVLFYAITTLHNLLLHQEGAKMAVRLAGGLQKMVALLNKTNVKFLAITTDCLQILAYGNQESKLIILASGGPQALVNIMRTYTYEKLLWTTSRVLKVLSVCSSNKPAIVEAGGMQALGLHLTDPSQRLVQNCLWTLRNLSDAATKQEGMEGLLGTLVQLLGSDDINVVTCAAGILSNLTCNNYKNKMMVCQVGGIEALVRTVLRAGDREDITEPAICALRHLTSRHQEAEMAQNAVRLHYGLPVVVKLLHPPSHWPLIKATVGLIRNLALCPANHAPLREQGAIPRLVQLLVRAHQDTQRRTSMGGTQQQFVEGVRMEEIVEGCTGALHILARDVHNRIVIRGLNTIPLFVQLLYSPIENIQRVAAGVLCELAQDKEAAEAIEAEGATAPLTELLHSRNEGVATYAAAVLFRMSEDKPQDYKKRLSVELTSSLFRTEPMAWNETADLGLDIGAQGEPLGYRQDDPSYRSFHSGGYGQDALGMDPMMEHEMGGHHPGADYPVDGLPDLGHAQDLMDGLPPGDSNQLAWFDTDL
For B1, the Kd stood at 194 nM in test [1] and 61.9 nM in test [2].

Usually Kd stands for the equilibrium constant for the complex coming apart. Lower therefore signals tighter binding.
